Measured values from paper PMC8374900 (ACS Omega, 2021).

Target: the molecule itself
Assay: AUC

B1: endo_N-BAR L187C (C108A) labeled with A488 (domain or fragment, rat, UniProt O35179 1-247, looked up)
chain: MSVAGLKKQFHKATQKVSEKVGGAEGTKLDDDFKEMERKVDVTSRAVMEIMTKTIEYLQPNPASRAKLSMINTMSKIRGQEKGPGYPQAEALLAEAMLKFGRELGDDANFGPALGEVGEAMRELSEVKDSLDMEVKQNFIDPLQNLHDKDLREIQHHLKKLEGRRLDFDYKKKRQGKIPDEELRQACEKFDESKEIAESSMFNLLEMDIEQVSQLSALVQAQLEYHKQAVQILQQVTVRLEERIRQA
modifications: Alexa Fluor 488 C5-maleimide on the introduced Cys 187
stoichiometry N: 2
